The source of these data is patent US20210253716A1 (Regeneron, published 2021).

Where a chain is given by its changes, count along the chain named.

The target in experiment [1] is T1, human ACVR1 extracellular domain expressed with a C-terminal myc-myc-hexahistidine tag (human).
T1 construct: also called hACVR1-MMH
T1 chain: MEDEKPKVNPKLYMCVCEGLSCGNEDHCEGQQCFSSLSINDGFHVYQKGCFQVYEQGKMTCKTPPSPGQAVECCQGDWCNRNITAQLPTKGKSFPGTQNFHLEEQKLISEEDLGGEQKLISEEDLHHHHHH
The experiment can be described thus: SPR (Biacore), mAb captured, 25 C. The method, then: (§1) Equilibrium dissociation constants (KD) for ACVR1 binding to purified anti-ACVR1 monoclonal antibodies were determined using a real-time surface plasmon resonance biosensor (SPR-Biacore), Biacore 4000. All binding studies were performed in 10 mM HEPES, 150 mM NaCl, 3 mM EDTA, and 0.05% v/v surfactant Tween-20, pH 7.4 (HBS-ET) running buffer at 25° C. and 37° C. The Biacore CM5 sensor surface was first derivatized by amine coupling with a monoclonal mouse anti-human Fc antibody (GE, #BR-1008-39 or REGN2567) to capture anti-ACVR1 monoclonal antibodies. […] ACVR1 reagents were then injected over anti-human Fc captured anti-ACVR1 monoclonal antibody surface for 2.5-3 minutes at a flow rate of 30 μL/minute, while the dissociation of monoclonal antibody bound ACVR1 reagent was monitored for 10-15 minutes in HBS-ET running buffer. Kinetic association rate constant (kₐ) and dissociation rate constant (kd) were determined by fitting the real-time sensorgrams to a 1:1 binding model using Scrubber 2.0c curve-fitting software. Binding dissociation equilibrium constants (KD) and dissociative half-lives (t½) were calculated from the kinetic rate constants as: […]
For orientation: In SPR one partner is held on a chip, and binding of the other changes the refractive index at the surface.

Experiment [2] has as its target T2, human ACVR1 extracellular domain expressed with a C-terminal mouse IgG2a Fc tag (human).
T2 construct: also called hACVR1-mFc
T2 chain: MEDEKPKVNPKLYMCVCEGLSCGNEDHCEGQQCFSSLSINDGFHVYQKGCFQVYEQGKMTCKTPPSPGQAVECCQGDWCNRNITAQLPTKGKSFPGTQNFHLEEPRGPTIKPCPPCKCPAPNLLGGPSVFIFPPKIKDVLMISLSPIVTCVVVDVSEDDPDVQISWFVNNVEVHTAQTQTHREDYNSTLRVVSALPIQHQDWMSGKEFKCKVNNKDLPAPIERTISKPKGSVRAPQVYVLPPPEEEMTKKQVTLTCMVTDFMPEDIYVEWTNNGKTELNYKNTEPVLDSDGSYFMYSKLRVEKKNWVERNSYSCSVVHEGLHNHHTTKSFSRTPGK
The experiment in a line: SPR (Biacore), mAb captured, 25 C. The method, then: as §1

Experiment [3] has as its target T3, mouse ACVR1 extracellular domain expressed with a C-terminal myc-myc-hexahistidine tag (mouse).
T3 construct: also called mACVR1-MMH; mACVR1-mmh
T3 chain: T1 chain with M1V, P10Q
The experiment can be described thus: SPR (Biacore), mAb captured, 25 C. As to the method: as §1

In experiment [4] the target is T1, human ACVR1 extracellular domain …. The experiment can be described thus: SPR (Biacore), mAb captured, 37 C. As to the method: as §1
For experiment [5], the target named is T2, human ACVR1 extracellular domain …. The experiment can be described thus: SPR (Biacore), mAb captured, 37 C. The method, then: as §1
The target in experiment [6] is T3, mouse ACVR1 extracellular domain …. The experiment can be described thus: SPR (Biacore), mAb captured, 37 C. The method, then:
as §1

The target in experiment [7] is T4, full length human ACVR1 (R206H) on HEK293/BRE-luc/hACVR1-R206H-clone H2 cells (human, UniProt Q04771 21-509).
T4 construct: also called HEK293/hACVR1-R206H
T4 sequence: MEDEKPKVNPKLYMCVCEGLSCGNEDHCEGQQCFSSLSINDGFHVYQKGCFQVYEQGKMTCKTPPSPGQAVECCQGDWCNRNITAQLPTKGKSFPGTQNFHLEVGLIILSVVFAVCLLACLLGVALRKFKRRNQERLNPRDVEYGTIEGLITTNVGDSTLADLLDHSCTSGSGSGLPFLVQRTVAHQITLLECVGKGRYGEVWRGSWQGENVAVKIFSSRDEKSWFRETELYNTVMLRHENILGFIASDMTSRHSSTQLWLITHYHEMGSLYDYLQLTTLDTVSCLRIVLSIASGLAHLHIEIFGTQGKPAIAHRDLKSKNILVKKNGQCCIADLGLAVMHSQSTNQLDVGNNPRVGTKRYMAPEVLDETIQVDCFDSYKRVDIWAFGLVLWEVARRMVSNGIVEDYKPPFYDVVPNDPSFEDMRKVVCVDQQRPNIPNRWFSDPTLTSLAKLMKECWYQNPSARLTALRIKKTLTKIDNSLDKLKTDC
The experiment in a line: flow cytometry, 70 nM antibody, HEK293/hACVR1-R206H cells. The method, then: Cells were fixed using BD CytoFix™ (Becton Dickinson, #554655) and analyzed on either Hypercyt® or IQue® Flow Cytometers (Intellicyt®). Unstained and secondary antibody alone controls were also tested for all cell lines. The results were analyzed using ForeCyt® (IntelliCyt®) software to determine the geometric means of fluorescence for viable cells and binding ratios were calculated by normalizing the geometric mean value of the test condition by the geometric mean value of the corresponding unstained cells.
Background: In flow cytometry, cells or beads pass a laser one at a time.

For experiment [8], the target named is T4, full length human ACVR1 (R206H) on …. The experiment in a line: cell-based or functional assay.

The Kd is the equilibrium constant for the complex coming apart. Read a high Kd as lower affinity. What is called koff is the rate constant with which the complex falls apart. The kon is the second-order rate constant of association. The low end stands for slower complex formation, the high end for faster complex formation. By t½ is commonly meant the time in which the quantity being followed falls by half.

B1: mAb29233 (antibody, human IgG4 S228P, kappa, V domains shown)
VH: QVQLVQSGAEVKKPGASVKVSCKASGYTFTSYGISWVRQAPGQGLEWMGWISAYNGNTIYAQKFQGRVTMTTDTSTSTAYMELRSLRSDDTAVYYCARDINWYFDLWGRGTLVTVSS
VL: DIQMTQSPSSLSASVGDRVTITCRASQGIRNDLGWFQQKPGKAPKRLIYAASSLQSGVPSRFSGSGSGTEFTLTISSLQPEDFATYYCLQHNSYPWTFGQGTKVEIKR
For B1, the “900 nM or 100 nM Ag Bound (RU)” value in experiment [1] is 1 RU; in experiment [3], 1 RU; in experiment [4], 3 RU; in experiment [6] it was 1 RU. For the same molecule, the values for the binding result in experiment [1], in experiment [2] and in experiment [3] were “no binding (tested: 900 nM or 100 nM)”, “no binding (tested: 100 nM)” and “no binding (tested: 900 nM or 100 nM)”, respectively. Moreover, the “100 nM Ag Bound (RU)” value in experiment [2] amounted to 2 RU; in experiment [5], 3 RU. The “MFI - Normalized to Unstained Control” value in experiment [7] turned out to be 5 fold.

B2: mAb29261 (antibody, human IgG4 S228P, kappa, V domains shown)
VH: EVQLVESGGNLVQPGGSLRLSCAASGFTFSNYAMSWVRQAPGKGLEWVSGITGNGINTYYSVSVKGRFTISRDNSKNTVFLQMNSLRAEDTAIYYCVKERGHSWFGDWFDPWGQGTLVTVSS
VL: B1 VL with F36Y
Consider B2, for which the “900 nM or 100 nM Ag Bound (RU)” value in experiment [1] was 0 RU; in experiment [3] it was -1 RU; in experiment [4] it was 5 RU; in experiment [6], 2 RU. The binding result in experiment [4] is on record as “no binding (tested: 900 nM or 100 nM)”. In experiment [7], the “MFI - Normalized to Unstained Control” value came to 2 fold.

B3: mAb27247 (antibody, human IgG4 S228P, kappa, V domains shown)
VH: EIQLVESGGDLVQPGGSLKLSCAASGFTFSDSAMHWVRQASGKGLEWVGRIRNKANTYATSYAASVKGRFTVSTDDSKTTAYLQMRYLKIEDTAIYYCTSDQFDYWGQGTLVTVSS
VL: DVVMTQSPLSLSATLGQPASISCRSSQSLVYSDGITYLTWFQQRPGQSPTRLIYQVSNRDSGVPDRFNGSGSGTDFTLNISRVEAEDVGFYYCMEGTHWPWTFGQGTKVELKR
notes: also called H4H27247
For the molecule B3, in experiment [1], the “900 nM or 100 nM Ag Bound (RU)” value is 52 RU, the Kd amounted to 10.4 nM, the koff is 0.00119 s⁻¹ and the on-rate (kon) amounted to 115000 M⁻¹ s⁻¹. In experiment [1], the t½ came to 10 min. In experiment [2], the “100 nM Ag Bound (RU)” value is 186 RU; the affinity, expressed as Kd, was 0.787 nM; the koff was 0.00018 s⁻¹; the kon came out at 229000 M⁻¹ s⁻¹. In experiment [2], this molecule showed a t½ of 64 min. In experiment [3], the “900 nM or 100 nM Ag Bound (RU)” value was 3 RU and the binding result was “no binding (tested: 900 nM or 100 nM)”. In addition, in experiment [4], the “900 nM or 100 nM Ag Bound (RU)” value is 67 RU; the affinity, expressed as Kd, was 19.3 nM; the koff was 0.00404 s⁻¹; the kon amounted to 209000 M⁻¹ s⁻¹. In experiment [4], this molecule returned a t½ of 2.9 min. In experiment [5], the “100 nM Ag Bound (RU)” value is 219 RU, the Kd was determined as 1.39 nM, the koff was 0.000515 s⁻¹ and the on-rate (kon) was found to be 371000 M⁻¹ s⁻¹. For the same molecule, in experiment [5], the t½ amounted to 22 min. In addition, in experiment [6], the “900 nM or 100 nM Ag Bound (RU)” value is 4 RU. In addition, the “MFI - Normalized to Unstained Control” value in experiment [7] is 1660 fold.

B4: mAb29266 (antibody, human IgG4 S228P, kappa, V domains shown)
VH: QVQLVESGGGVVQPGRSLRLSCEVSGFTFSNYGMHWVRQAPGKGLEWVAVVSYDGSNKYYTDSVKGRFTISRDNSKNTLSLQMNSLRAEDTAVYYCAKDRGITGTSGGVFDIWGQGTMVTVSS
VL: AIRMTQSPSSFSATTGDRVTITCRASQGISSHLAWYQQKPGKAPKFLIYVASTLQSGVPSRFSGSGSGTDFTLTISSLQSEDFATYYCQQYYSYPPTFGQGTKVEIKR
Regarding B4, in experiment [8], the “% Inhibition, BRE-luc reporter, 2 nM hBMP7” value was found to be 93% and the “IC50 [M], BRE-luc reporter, 2 nM hBMP7” value came out at 1.9e-09 M. Moreover, in experiment [1], the “900 nM or 100 nM Ag Bound (RU)” value worked out at 44 RU, the Kd came out at 109 nM, the koff stood at 0.00679 s⁻¹ and the kon amounted to 62100 M⁻¹ s⁻¹. In addition, in experiment [1], the t½ is 1.7 min. In experiment [2], the “100 nM Ag Bound (RU)” value was 178 RU, binding was put at a Kd of 5.43 nM, the koff worked out at 0.00062 s⁻¹ and the kon came to 114000 M⁻¹ s⁻¹. Also, the t½ in experiment [2] stood at 19 min. Besides, in experiment [4], the “900 nM or 100 nM Ag Bound (RU)” value is 38 RU, the Kd is 191 nM, the koff is 0.0299 s⁻¹ and the kon was determined as 156000 M⁻¹ s⁻¹. Also, the t½ in experiment [4] was 0.39 min. Besides, in experiment [5], the “100 nM Ag Bound (RU)” value was determined as 205 RU, binding was put at a Kd of 3.88 nM, the koff stood at 0.000911 s⁻¹ and the kon came out at 235000 M⁻¹ s⁻¹. Moreover, in experiment [5], the t½ is 13 min. For the same molecule, in experiment [7], the “MFI - Normalized to Unstained Control” value is 1640 fold.

B5: mAb29256 (antibody, human IgG4 S228P, kappa, V domains shown)
VH: B2 VH with I56V, V79L, Q82E
VL: DIQMTQSPSSLSASVGDRVTITCRSSQSVISYLNWYQQKPGKAPKLLIFGASSLISGVPSRFSGSGSGTDFTLTIVSLQPEDFAVYFCQQNYLPPLTFGGGTKVEIKR
notes: also called mAb29256P
As for B5, the “900 nM or 100 nM Ag Bound (RU)” value in experiment [1] is -2 RU; in experiment [3], -3 RU; in experiment [4], 0 RU; in experiment [6], 0 RU. For the same molecule, the “100 nM Ag Bound (RU)” value in experiment [2] was -1 RU; in experiment [5] it was 3 RU. In addition, the “MFI - Normalized to Unstained Control” value in experiment [7] was determined as 3 fold.
